The experiment concerns the target AR ligand binding domain (residues 670-920), biotinylated, N-terminal (His)6-avidin tag (human, UniProt P10275 670-920, biotin (biotinylated form)). Kind of experiment: FRET or BRET.

Ends that are not written are not given here. * marks the point of attachment. FITC = O=C1OC2(c3ccc(O)cc3Oc3cc(O)ccc32)c2ccc(NC(=S)*)cc21

Experimental findings from article PMC5136324 (Molecular cancer therapeutics, 2016) are described below.

Turning to {FITC}-MPQDLRSPARTPPSEEDSAEA [FITC-labelled SGTA peptide (FITC-MPQDLRSPARTPPSEEDSAEA)], the binding result is “binds”.
